T1: Kunitz trypsin inhibitor (KTI) (UniProt P01070)
T1 sequence: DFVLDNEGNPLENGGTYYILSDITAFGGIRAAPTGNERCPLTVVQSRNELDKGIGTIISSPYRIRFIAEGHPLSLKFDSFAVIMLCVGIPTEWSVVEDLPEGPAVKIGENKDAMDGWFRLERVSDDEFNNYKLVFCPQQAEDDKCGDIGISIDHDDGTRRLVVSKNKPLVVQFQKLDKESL

T2: Kunitz trypsin inhibitor (KTI) (UniProt P01070 25-205)
T2 sequence: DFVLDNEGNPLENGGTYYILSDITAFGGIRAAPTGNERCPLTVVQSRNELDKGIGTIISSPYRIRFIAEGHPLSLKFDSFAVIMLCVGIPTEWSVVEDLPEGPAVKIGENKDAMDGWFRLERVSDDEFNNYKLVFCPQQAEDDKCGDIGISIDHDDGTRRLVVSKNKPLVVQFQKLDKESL

Data on six molecules can be found in publication PMC8907715, “Selection and identification of high‐affinity aptamer of Kunitz trypsin inhibitor and their application in rapid and specific detection”.

One series addresses T1, Kunitz trypsin inhibitor (KTI). As to the kind of experiment: GO fluorescence assay. Particulars: FAM-aptamer 0-600 nM with GO 60 min, then 1 uM KTI 2 h at room temperature in the dark; assay buffer, salt and pH not stated (oligos dissolved in TE pH 8.0).
Consider “CTGGTGTTTTCTTTACGCATAACAAGGCCCCTGAGAGGCT [Akti-9]”, for which the Kd came to 134 nM.

Turning to “TGTACCGCCCACCTGCCGCTAACGGCGGTGCTGCGGTGCG [Akti-28]”, the Kd was determined as 164 nM.

As to “CCAACCTGTGGCATTTGGTAACTTGATCTTACGGTGTTCG [Akti-10]”, the Kd is 22.6 nM.

With “TCTGGCTTCTGATCTGATGTTTTTACTATCGGTATTTCTA [Akti-15]”, the dissociation constant Kd turned out to be 67.9 nM.

As to “GGTCGTGAGGCCCACCGCTGAGCTCTAGTATCGCTCGGCG [Akti-11]”, the dissociation constant Kd amounted to 116 nM.

The next series deals with T2, Kunitz trypsin inhibitor (KTI). As to the kind of experiment: GO fluorescence assay; text gives 52.6 ± 11.4; FAM-aptamer 0-600 nM with GO 60 min, then 1 uM KTI 2 h at room temperature in the dark; assay buffer, salt and pH not stated (oligos dissolved in TE pH 8.0). Particulars: protein: commercial; label: 5'-FAM.
Regarding CTTCGTATCCTGTGCTGCAGTTGTTTTTAAGTGCTGGGAG (ssDNA) [Akti-5], the Kd stood at 52.5 ± 11.3 nM.

One may read the Kd as the concentration at which binding is half-saturated.
